Tests used:
ETV2 [1] = target: T1, ETV2 (UniProt O00321 1-342); experiment: EMSA; strongest shift of the four; abolished by 50-fold WT competitor; EMSA: 3 µl TNT ETV2, 30 min at 4 °C; 4% native polyacrylamide gel, 0.5x TBE, 120 V 2 h; binding buffer, salt and pH not stated; conditions: protein: ivt; label: 32P (probe); blunt
T1 sequence: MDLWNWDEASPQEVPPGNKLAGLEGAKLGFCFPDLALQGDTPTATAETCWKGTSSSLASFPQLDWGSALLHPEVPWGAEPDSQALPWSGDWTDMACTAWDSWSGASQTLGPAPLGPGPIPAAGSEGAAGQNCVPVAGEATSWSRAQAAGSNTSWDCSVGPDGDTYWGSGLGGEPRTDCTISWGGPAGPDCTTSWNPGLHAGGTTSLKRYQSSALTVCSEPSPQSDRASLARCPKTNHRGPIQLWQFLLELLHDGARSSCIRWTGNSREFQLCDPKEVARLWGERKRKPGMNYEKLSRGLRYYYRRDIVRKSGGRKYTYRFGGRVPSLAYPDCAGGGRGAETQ

ETV2 [2] = target: T1, ETV2; experiment: competition; 50-fold excess vs ETS(2) probe, EMSA; EMSA: 3 µl TNT ETV2, 30 min at 4 °C; 4% native polyacrylamide gel, 0.5x TBE, 120 V 2 h; binding buffer, salt and pH not stated; conditions: protein: ivt; blunt ends, 2 internal mismatches as printed
ETV2 [3] = target: T1, ETV2; experiment: EMSA; least pronounced shift of the four; abolished by 50-fold WT competitor; EMSA: 3 µl TNT ETV2, 30 min at 4 °C; 4% native polyacrylamide gel, 0.5x TBE, 120 V 2 h; binding buffer, salt and pH not stated; conditions: protein: ivt; label: 32P (probe); blunt
ETV2 [4] = target: T1, ETV2; experiment: competition; 50-fold excess vs ETS(3) probe, EMSA; EMSA: 3 µl TNT ETV2, 30 min at 4 °C; 4% native polyacrylamide gel, 0.5x TBE, 120 V 2 h; binding buffer, salt and pH not stated; conditions: protein: ivt; blunt
ETV2 [5] = target: T1, ETV2; experiment: competition; 50-fold excess vs ETS(1) probe, EMSA; EMSA: 3 µl TNT ETV2, 30 min at 4 °C; 4% native polyacrylamide gel, 0.5x TBE, 120 V 2 h; binding buffer, salt and pH not stated; conditions: protein: ivt; blunt
ETV2 [6] = target: T1, ETV2; experiment: EMSA; third strongest shift; abolished by 50-fold WT competitor; EMSA: 3 µl TNT ETV2, 30 min at 4 °C; 4% native polyacrylamide gel, 0.5x TBE, 120 V 2 h; binding buffer, salt and pH not stated; conditions: protein: ivt; label: 32P (probe); blunt
ETV2 [7] = target: T1, ETV2; experiment: EMSA; second strongest shift; abolished by 50-fold WT competitor; EMSA: 3 µl TNT ETV2, 30 min at 4 °C; 4% native polyacrylamide gel, 0.5x TBE, 120 V 2 h; binding buffer, salt and pH not stated; conditions: protein: ivt; label: 32P (probe); blunt
ETV2 [8] = target: T1, ETV2; experiment: competition; 50-fold excess vs ETS(4) probe, EMSA; EMSA: 3 µl TNT ETV2, 30 min at 4 °C; 4% native polyacrylamide gel, 0.5x TBE, 120 V 2 h; binding buffer, salt and pH not stated; conditions: protein: ivt; blunt

B1: ETS(1) (dsDNA)
DNA 1: GGGCCAGGCAGGAAGCATCGG
DNA 2: CCGATGCTTCCTGCCTGGCCC
B1: binds (ETV2 [1]).

B2: ETS(2)mut (dsDNA)
DNA 1: CATCGGTTAGGTTCAAGCCGC
DNA 2: GCGGCTTTGACCTAACCGATG
B2: no binding (ETV2 [2]).

B3: ETS(4) (dsDNA)
DNA 1: CCCCTCCTTCCCTCTTCACTG
DNA 2: CAGTGAAGAGGGAAGGAGGGG
B3: binds (ETV2 [3]).

B4: ETS(3)mut (dsDNA)
DNA 1: CAAAGCCGCTAGGCTCCTGGG
DNA 2: CCCAGGAGCCTAGCGGCTTTG
B4: no binding (ETV2 [4]).

B5: ETS(1)mut (dsDNA)
DNA 1: GGGCCAGGCACCTAGCATCGG
DNA 2: CCGATGCTAGGTGCCTGGCCC
B5: no binding (ETV2 [5]).

B6: ETS(3) (dsDNA)
DNA 1: CAAAGCCGCTTCCCTCCTGGG
DNA 2: CCCAGGAGGGAAGCGGCTTTG
B6: binds (ETV2 [6]).

B7: ETS(2) (dsDNA)
DNA 1: CATCGGTTTCCTCAAAGCCGC
DNA 2: GCGGCTTTGAGGAAACCGATG
B7: binds (ETV2 [7]).

B8: ETS(4)mut (dsDNA)
DNA 1: CCCCTCCTAGGCTCTTCACTG
DNA 2: CAGTGAAGAGCCTAGGAGGGG
B8: no binding (ETV2 [8]).

From paper PMC5884809, “ETV2-TET1/TET2 Complexes Induce Endothelial Cell-Specific Robo4 Expression via Promoter Demethylation”
